Data taken from article PMC8993905, “Functional control of a 0.5 MDa TET aminopeptidase by a flexible loop revealed by MAS NMR” (Nature Communications, 2022).
Where a chain is given by its changes, count along the chain named. Names and notes keep the numbering of the source.

B1: TET2 (Pyrococcus horikoshii OT3) (protein)
chain: MEVRNMVDYELLKKVVEAPGVSGYEFLGIRDVVIEEIKDYVDEVKVDKLGNVIAHKKGEGPKVMIAAHMDQIGLMVTHIEKNGFLRVAPIGGVDPKTLIAQRFKVWIDKGKFIYGVGASVPPHIQKPEDRKKAPDWDQIFIDIGAESKEEAEDMGVKIGTVITWDGRLERLGKHRFVSIAFDDRIAVYTILEVAKQLKDAKADVYFVATVQEEVGLRGARTSAFGIEPDYGFAIDVTIAADIPGTPEHKQVTHLGKGTAIKIMDRSVICHPTIVRWLEELAKKHEIPYQLEILLGGGTDAGAIHLTKAGVPTGALSVPARYIHSNTEVVDERDVDATVELMTKALENIHELKI
notes: full length, 353 residues per subunit, pET41c in E. coli BL21(DE3), no tag mentioned (heat step, Resource Q, Superdex 200), 39 kDa subunit, 468 kDa homododecamer, two Zn per active site
B2: TET2 (Pyrococcus horikoshii OT3; H123K) (protein)
chain: B1 chain with H123K
notes: as for B1
B3: TET2 (Pyrococcus horikoshii OT3; H123F) (protein)
chain: B1 chain with H123F
notes: as for B1
B4: TET2 (Pyrococcus horikoshii OT3; H123Y) (protein)
chain: B1 chain with H123Y
notes: as for B1
B5: TET2 (Pyrococcus horikoshii OT3; DEL122-122/DEL126-126) (protein)
chain: MEVRNMVDYELLKKVVEAPGVSGYEFLGIRDVVIEEIKDYVDEVKVDKLGNVIAHKKGEGPKVMIAAHMDQIGLMVTHIEKNGFLRVAPIGGVDPKTLIAQRFKVWIDKGKFIYGVGASVPHIQPEDRKKAPDWDQIFIDIGAESKEEAEDMGVKIGTVITWDGRLERLGKHRFVSIAFDDRIAVYTILEVAKQLKDAKADVYFVATVQEEVGLRGARTSAFGIEPDYGFAIDVTIAADIPGTPEHKQVTHLGKGTAIKIMDRSVICHPTIVRWLEELAKKHEIPYQLEILLGGGTDAGAIHLTKAGVPTGALSVPARYIHSNTEVVDERDVDATVELMTKALENIHELKI
notes: as for B1
B6: TET2 (Pyrococcus horikoshii OT3; DEL120-138) (protein)
chain: MEVRNMVDYELLKKVVEAPGVSGYEFLGIRDVVIEEIKDYVDEVKVDKLGNVIAHKKGEGPKVMIAAHMDQIGLMVTHIEKNGFLRVAPIGGVDPKTLIAQRFKVWIDKGKFIYGVGASIFIDIGAESKEEAEDMGVKIGTVITWDGRLERLGKHRFVSIAFDDRIAVYTILEVAKQLKDAKADVYFVATVQEEVGLRGARTSAFGIEPDYGFAIDVTIAADIPGTPEHKQVTHLGKGTAIKIMDRSVICHPTIVRWLEELAKKHEIPYQLEILLGGGTDAGAIHLTKAGVPTGALSVPARYIHSNTEVVDERDVDATVELMTKALENIHELKI
notes: as for B1

Substrate: CC(C)C[C@H](N)C(=O)Nc1ccc([N+](=O)[O-])cc1
Test: purified protein
Format: biochemical, Pyrococcus horikoshii
Conditions: pH 7.5 (20 mM Tris, 100 mM NaCl), 50 °C, 2.8% DMSO, 0.1-6.4 mM substrate
[1] = mutant printed as Δ(122,126), loop shortened by one residue on each side of H123
[2] = Δloop mutant, loop printed as shortened to a two-residue β-turn and as lacking residues 120-138

Protein | Km [mM] | kcat [s⁻¹] | further results
B1 | 3.2 ± 0.1 | 14.1 ± 1.7 | 
B2 | 17.0 ± 1.3 | 16.9 ± 3.6 | 
B3 | 14.4 ± 0.6 | 26.6 ± 4.1 | 
B4 | 13.8 ± 0.6 | 15.7 ± 2.7 | 
B5 |  |  | Km [1]: 28.5 ± 2.3 mM; kcat [1]: 31.5 ± 8.1 s⁻¹
B6 |  |  | Km [2]: 1.3 ± 0.1 mM; kcat [2]: 1.7 ± 1.0 s⁻¹
